Laboratory results from the supplement of paper PMC10567573.

B1: ADAMTSL2 (parent)
chain: KKPPEESTCFERPCFKWYTSPWSE

Variants of: B1
Assay: protein stability index of a GFP-peptide fusion (GPS, HEK-293T) (PSI 1-6); higher = more stable
Details: c terminus: a fixed tail appended
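Further: lentivirally expressed fusions sorted by FACS into six bins by GFP to DsRed ratio, PSI derived from sequencing read proportions per bin multiplied by bin number.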

Protein stability index of substitutions, site by site:
T19: H 2.65 | R 2.22 | G 2.82 | F 2.28 | N 3.43 | Q 1.89 | W 2.05 | V 2.78 | Y 1.84 | M 2.2 | C 2.13 | S 3.24 | P 2.86 | A 2.28 | D 2.65 | K 2.03 | L 2.73 | I 2.35 | E 3.38
S7: C 2.66 | Q 2.58 | V 2.42 | R 2.19 | A 2.31 | G 2.8 | H 2.51 | N 2.24 | E 2.47 | M 2.08 | I 2.28 | D 2.4 | P 2.21 | Y 2.64 | K 2.21 | L 1.39 | F 2.11 | W 1.66 | T 2.39
C9: Q 3.34 | E 3.33 | K 2.69 | I 2.25 | A 2.43 | Y 2.54 | S 2.35 | L 2.05 | M 2.8 | P 2.7 | G 2.63 | R 2.52 | H 2.36 | W 2.04 | N 2.18 | F 2.3 | V 2.82 | T 2.84 | D 2.97
T8: C 2.17 | F 1.74 | Q 2.79 | H 2.29 | S 2.77 | P 2.59 | N 2.56 | A 2.75 | E 2.69 | M 2.45 | I 2.32 | V 2.28 | L 3.01 | K 2.89 | W 1.7 | D 2.61 | Y 1.68 | G 2.37 | R 2.14
E5: P 1.82 | I 2.16 | C 2.32 | N 2.29 | S 2.3 | M 1.47 | V 2.48 | T 1.67 | D 2.08 | L 2.33 | F 1.88 | R 2.02 | Q 2 | Y 2.01 | G 2.2 | W 2.27 | K 1.45 | A 1.92 | H 2.09
E11: S 2.82 | V 2.06 | H 2.27 | Q 2.27 | G 1.87 | Y 2.19 | L 1.88 | C 1.49 | W 1.64 | F 2.19 | D 2.38 | R 1.75 | A 2.59 | K 2.11 | I 1.9 | N 2.98 | T 2.05 | P 2.46 | M 1.98
P4: I 2.26 | Q 2.72 | W 1.75 | N 2.19 | M 2.29 | F 1.89 | V 2.77 | S 2.21 | C 1.95 | K 2.49 | H 1.94 | Y 2.48 | G 3.23 | A 2.93 | E 2.4 | T 3 | D 2.69 | R 2.49 | L 2.04
P21: D 3.04 | C 2.39 | A 2.41
P13: D 2.39 | V 1.96 | M 2.02 | E 2.49 | T 2.16 | K 2.58 | I 2.02 | Y 1.87 | N 2.32 | H 2.21 | G 2.27 | S 2.31 | F 2.18 | A 2.23 | L 2.09 | C 1.84 | Q 2.1 | R 1.79
P3: R 2.46 | S 2.29 | L 2.26 | Y 1.88 | W 2.6 | M 2.29 | Q 2.67 | V 2.16 | T 2.21 | N 2.94
Y18: D 3.48 | C 2.33 | N 2.81 | L 2.45 | P 3.02 | G 2.99 | R 2.71 | I 2.15 | F 1.86 | H 2.97 | K 3.04 | Q 2.58 | V 2.22 | W 2.57 | E 3.15 | M 2.38 | A 2.87 | T 3 | S 3.18
R12: G 2.42 | E 2.95 | S 2.79 | Q 2.3 | T 2.09 | K 2.5 | C 1.69 | I 2.03 | W 2.24 | N 2.55 | A 2.65 | H 2.63 | M 2.16 | V 2.29 | P 2.77 | F 1.71 | Y 2.84 | L 2.04 | D 3
F10: G 2.71 | L 2.81 | D 2.89 | I 2.81 | Y 2.06 | K 3.55 | Q 2.54 | S 3.46 | P 3.19 | A 2.51 | T 3.19 | W 2.09 | M 2.83 | C 2.14 | H 2.99 | N 2.45 | V 2.86 | E 2.9
S20: V 1.93 | I 2.59 | H 2.25 | P 2.04 | M 2.08 | D 2.42 | C 1.99 | F 2.02 | Q 2.35 | R 2.86 | K 2.61 | W 4.33 | L 1.95 | G 2.29 | T 2.15 | N 2.58 | Y 2.37 | E 2.11 | A 2.88
C14: K 2.69 | W 1.9 | R 3.7 | P 3.09 | M 2.62 | T 2.42 | D 3.26 | A 2.94 | L 2.25 | S 2.23 | V 2.58 | Q 2.68 | G 3.12 | H 2.23 | F 2.39 | Y 2.02 | N 2.98 | I 2.23 | E 2.89
F15: N 2.63 | P 2.31 | C 2.93 | V 2.87 | L 1.61 | D 3.26 | G 2.25 | H 2.6 | T 2.89 | W 2.25 | Q 2.63 | A 2.75 | Y 2.77 | K 2.64 | R 2 | S 2.6 | M 2.06 | E 3.25 | I 2.79
E6: K 2.55 | Y 1.97 | V 2.65 | I 1.87 | Q 2.06 | C 2.44 | W 1.87 | P 2.05 | L 2.07 | A 1.91 | S 1.82 | H 2.06 | T 1.84 | D 2.8 | M 1.9 | N 2.08 | G 2.57 | F 1.9 | R 2.05
K16: I 1.77 | V 1.94 | L 2.51 | M 2.43 | S 2.49 | E 3.35 | C 2.07 | N 2.63 | Q 2.8 | Y 1.72 | P 2.13 | R 2.27 | G 1.67 | T 2.22 | H 4.02 | W 1.86 | D 3.04 | A 2.62 | F 1.9
W17: T 2.9 | F 2.88 | N 3.42 | Y 2.86 | K 3.53 | I 2.46 | D 3.6 | L 2.37 | V 2.52 | S 3.33 | R 2.96 | M 2.9 | G 3.35 | C 2.56 | P 3.5 | Q 2.85 | E 3.19 | H 2.57 | A 3.79
